Among the data in US20210139593A1 (UNIVERSIDAD DE CHILE, published 2021) are Ka and Kd values, retold here.

The target of the assay is T1, recombinant MICA (rMICA) (UniProt Q29983 24-307, limits assumed).
T1 construct: Recombinant MICA coated on ELISA plates
T1 sequence (looked up): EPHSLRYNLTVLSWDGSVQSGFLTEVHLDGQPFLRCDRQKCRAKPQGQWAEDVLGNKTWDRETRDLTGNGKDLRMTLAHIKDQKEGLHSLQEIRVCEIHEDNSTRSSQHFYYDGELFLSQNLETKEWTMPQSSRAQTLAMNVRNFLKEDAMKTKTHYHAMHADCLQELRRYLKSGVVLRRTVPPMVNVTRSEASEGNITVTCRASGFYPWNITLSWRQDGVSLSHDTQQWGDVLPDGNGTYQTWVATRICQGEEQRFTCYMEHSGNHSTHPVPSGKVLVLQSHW
The experiment in a line: method not stated.

B1: anti-MICA scFv protein (scFv-aMICA) (scFv)
scFv: EFGVVMTQSPDFQSVTPKEKVTITCRASQSIGRSIHWYQQKPDQSPKLLVMYASQSFSGVPSRFSGSGSGTDFTLTINSLEAEDAATYYCHQSYSVPRSFGQGTKLEIKRTVAAGGSSRSSSSGGGGSGGGGQVQLQESGPGLVKPSQTLSLTCTVSGDSVRSAYSSWNWIRQPPGKGLEWIGQIHPNGNTYYNPSLMSRITVSIDTSKNQFSLKLDSVTAADTAVYFCATEGVTSESGSFDIWGQGRMVIVSSASTKGPSVAS
notes: Monomeric soluble scFv produced from the phagemid pUCH1 Amber; also called scFv-MICA
One may read the Kd as a measure of binding affinity in units of concentration. For B1, the Ka is 7.4e+06 M⁻¹ and the Kd worked out at 135 nM.
